Laboratory results taken from patent publication US20180044433A1 (FONDAZIONE IRCCS INSTITUTO NAZIONALE DEI TUMORI, published 2018).

How the values were obtained:
JMJD6 peptide 40 = molecular target: T1, JMJD6 peptide 40 (human); test: ELISA on plated peptides (1 ug/well)
T1 construct: also called pool G
T1 peptide: VVLNLDTTIAITQN
Experimental: (§1) A peptide library was synthesized (Primm), consisting of 57 peptides with 14 amino acids each and whose sequences overlap for 7 amino acids. In order to assay the interaction with collagen, the peptides, were sown in a plate (1 ug/well) and incubated for the whole night at 4° C. […] The reaction was developed and read at 450 nm as indicated above. As control two unrelated peptides were used and the reactivity of the antibodies on the peptides in absence of collagen was evaluated.

JMJD6 peptide 25 = molecular target: T2, JMJD6 peptide 25 (human); test: ELISA on plated peptides (1 ug/well)
T2 construct: also called pool E
T2 peptide: RPPYRWFVMGPPRS
Experimental: as §1

JMJD6 peptide 24 = molecular target: T3, JMJD6 peptide 24 (human); test: ELISA on plated peptides (1 ug/well)
T3 construct: also called pool E
T3 peptide: QYAGEKRRPPYRWF
Experimental: as §1

JMJD6 peptide 29 = molecular target: T4, JMJD6 peptide 29 (human); test: ELISA on plated peptides (1 ug/well)
T4 construct: also called pool F
T4 peptide: NALVQGHKRWCLFP
Experimental: as §1

JMJD6 peptide 45 = molecular target: T5, JMJD6 peptide 45 (human); test: ELISA on plated peptides (1 ug/well)
T5 construct: also called pool H
T5 peptide: SRKWYRILKQEHPE
Experimental: as §1

JMJD6 peptide 44 = molecular target: T6, JMJD6 peptide 44 (human); test: ELISA on plated peptides (1 ug/well)
T6 construct: also called pool H
T6 peptide: VRGRPKLSRKWYRI
Experimental: as §1

JMJD6 peptide 14 = molecular target: T7, JMJD6 peptide 14 (human); test: ELISA on plated peptides (1 ug/well)
T7 construct: also called pool B
T7 peptide: RKYRNQKFKCGEDN
Experimental: as §1

JMJD6 peptide 43 = molecular target: T8, JMJD6 peptide 43 (human); test: ELISA on plated peptides (1 ug/well)
T8 construct: also called pool H
T8 peptide: PVVWHKTVRGRPKL
Experimental: as §1

JMJD6 peptide 30 = molecular target: T9, JMJD6 peptide 30 (human); test: ELISA on plated peptides (1 ug/well)
T9 construct: also called pool F
T9 peptide: KRWCLFPTSTPREL
Experimental: as §1

JMJD6 peptide 53 = molecular target: T10, JMJD6 peptide 53 (human); test: ELISA on plated peptides (1 ug/well)
T10 construct: also called pool I
T10 peptide: SEGDGTVHRRKKRR
Experimental: as §1

JMJD6 peptide 13 = molecular target: T11, JMJD6 peptide 13 (human); test: ELISA on plated peptides (1 ug/well)
T11 construct: also called pool B
T11 peptide: WTLERLKRKYRNQK
Experimental: as §1

JMJD6 peptide 21 = molecular target: T12, JMJD6 peptide 21 (human); test: ELISA on plated peptides (1 ug/well)
T12 construct: also called pool D
T12 peptide: PKRRKLLEDYKVPK
Experimental: as §1

JMJD6 peptide 2 = molecular target: T13, JMJD6 peptide 2 (human); test: ELISA on plated peptides (1 ug/well)
T13 construct: also called pool A
T13 peptide: RIREAKRSARPELK
Experimental: as §1

JMJD6 peptide 17 = molecular target: T14, JMJD6 peptide 17 (human); test: ELISA on plated peptides (1 ug/well)
T14 construct: also called pool C
T14 peptide: KMKYYIEYMESTRD
Experimental: as §1

JMJD6 peptide 39 = molecular target: T15, JMJD6 peptide 39 (human); test: ELISA on plated peptides (1 ug/well)
T15 construct: also called pool G
T15 peptide: VPGGWWHVVLNLDT
Experimental: as §1

JMJD6 peptide 38 = molecular target: T16, JMJD6 peptide 38 (human); test: ELISA on plated peptides (1 ug/well)
T16 construct: also called pool G
T16 peptide: KPGETVFVPGGWWH
Experimental: as §1

JMJD6 peptide 54 = molecular target: T17, JMJD6 peptide 54 (human); test: ELISA on plated peptides (1 ug/well)
T17 construct: also called pool I
T17 peptide: HRRKKRRTCSMVGN
Experimental: as §1

JMJD6 peptide 20 = molecular target: T18, JMJD6 peptide 20 (human); test: ELISA on plated peptides (1 ug/well)
T18 construct: also called pool D
T18 peptide: DSSYGEHPKRRKLL
Experimental: as §1

JMJD6 peptide 1 = molecular target: T19, JMJD6 peptide 1 (human); test: ELISA on plated peptides (1 ug/well)
T19 construct: also called pool A
T19 peptide: MNHKSKKRIREAKR
Experimental: as §1

JMJD6 peptide 16 = molecular target: T20, JMJD6 peptide 16 (human); test: ELISA on plated peptides (1 ug/well)
T20 construct: also called pool C
T20 peptide: DGYSVKMKMKYYIE
Experimental: as §1

JMJD6 peptide 41 = molecular target: T21, JMJD6 peptide 41 (human); test: ELISA on plated peptides (1 ug/well)
T21 construct: also called pool G
T21 peptide: TIAITQNFASSTNF
Experimental: as §1

[1] = molecular target: T22, JMJD6 5′/FLAG (amino acids 1-305 with C-terminal FLAG) (human, UniProt Q6NYC1 1-305); test: immunofluorescence on transfected MeWo cells
T22 construct: range 1-305; Expressed in transfected MeWo cells and tested by immunofluorescence; also called JM 5′/FLAG

Measured: binding result

B1: monoclonal antibody P4E11 (antibody, V domains shown, not shown: a dimerising Fc or GST)
VH: QVQLKQSGPGLVQPSQSLSITCTVSGFSLSSYGVHWVRQSPGKGLEWLGVIWRSGNTDYNAVFMSRLSITKDDSKSQVFFKMNSLQADDTAIYYCAKNFRYDVGSWFAYWGQGTLVTVSA
VL: NIMMTQSPSSLAVSAGEKVTMNCKSSQSILYSSNHKNYLAWYQQKPGQSPKLLIYWASTRESGVPNRFTGSGSGTDFTLTISSVQSEDLAVYYCHQYLSSYTFGGGTKLEIKR
no binding: JMJD6 peptide 40 | JMJD6 peptide 25 | JMJD6 peptide 24 | JMJD6 peptide 29 | JMJD6 peptide 45 | JMJD6 peptide 44 | JMJD6 peptide 14 | JMJD6 peptide 43 | JMJD6 peptide 30 | JMJD6 peptide 53 | JMJD6 peptide 13 | JMJD6 peptide 21 | JMJD6 peptide 2 | JMJD6 peptide 17 | JMJD6 peptide 39 | JMJD6 peptide 38 | JMJD6 peptide 54 | JMJD6 peptide 20 | JMJD6 peptide 1 | JMJD6 peptide 16 | JMJD6 peptide 41 | [1]
